The target in test [1] is T1, M2 mAChR (Homo sapiens, UniProt P08172, DEL226-389).
T1 construct: made in house; host or cells: Sf9 insect cells (receptor, baculovirus); Trichoplusia ni Hi5 cells (G protein); E. coli BL21(DE3) (cMSP1D1 scaffold)
T1 sequence (P08172 with tags, fused parts or gaps DEL226-389): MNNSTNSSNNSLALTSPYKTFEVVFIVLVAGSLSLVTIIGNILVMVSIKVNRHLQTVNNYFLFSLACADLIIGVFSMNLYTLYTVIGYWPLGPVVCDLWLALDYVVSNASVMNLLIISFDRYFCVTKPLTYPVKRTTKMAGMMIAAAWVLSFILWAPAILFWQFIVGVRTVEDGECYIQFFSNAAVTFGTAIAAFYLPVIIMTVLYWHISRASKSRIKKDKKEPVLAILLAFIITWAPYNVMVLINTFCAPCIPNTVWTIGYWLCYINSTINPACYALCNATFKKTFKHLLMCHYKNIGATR
As to the kind of experiment: [3H]-NMS interaction binding with LY211 and/or G protein at M2 mAChR nanodiscs (full interaction and titration). To be noted: Titration against KD concentration of [3H]-NMS, ATCM. As to the method:
(§1) The affinity of [^3H]-NMS for M2 mAChR in nanodiscs, as well as the concentration of receptor in nanodiscs, was determined through saturation binding with [^3H]-NMS. M2 nanodiscs were incubated with a range of concentrations of [^3H] […] Membrane equilibrium binding experiments were performed with 15 μg of membrane expressing the WT hM2 mAChR in a 300-μl reaction volume of binding buffer with or without 100 μM Gpp[NH]pp in deep 96-well plates for 6 hours at RT. […] For all radioligand binding experiments, nonspecific binding was defined by 10 μM Atr and the assay was terminated through rapid filtration through Whatman GF/B filter plates using a 96-well harvester (PerkinElmer). Filter plates were dried overnight, and radioactivity was determined by adding 40 μl of MicroScint-O scintillation fluid and counting in a MicroBeta^2 Plate Counter (PerkinElmer Life Sciences).
(§2) All data were analyzed using GraphPad Prism 9 (GraphPad Software, San Diego, CA). […] For competition binding experiments between [^3H]-NMS and a range of concentrations of unlabeled orthosteric agonist at M2 mAChR nanodiscs in the presence of G protein and for competition binding at M2 mAChR membranes, data were fit to a two-site competition binding model or a one-site competition binding model. […] Monoexponential decay and one-phase association equations were fit to the radioligand dissociation and association data at M2 mAChR nanodiscs.

Test [2] addresses T1, M2 mAChR. As to the kind of experiment: [3H]-NMS competition binding at M2 mAChR nanodiscs with or without Gi1 protein. To be noted: 1:2000 molar ratio M2 mAChR:G protein, [3H]-NMS competition binding. As to the method: as §1, §2
In test [3] the target is M2ΔICL3 mAChR (Flag-M2ΔICL3-His) reconstituted into cMSP1D1 nanodiscs (human) (UniProt P08172).
Test [4] shares this target. As to the kind of experiment: radioligand binding; Gi1 heterotrimer titrated (R:G ratios plotted as molar concentration) against a KD concentration of [3H]-NMS at M2 mAChR nanodiscs; affinity for the NMS-bound receptor from the allosteric ternary complex model (ATCM); 20 mM Hepes pH 7.5, 100 mM NaCl, 10 mM MgCl2, 0.5% BSA; 6 hours at RT; filtration. Conditions: scale: negative logarithm of the equilibrium dissociation constant.

Usually pKB stands for the KB on a negative log10 scale, so that one unit is a factor of ten. On to “G protein heterotrimer: purified WT G protein heterotrimer (Gαi1β1γ2)”, for which, in the test with M2 mAChR [1], the “Log α[3H]-NMS” value is −0.55 ± 0.16 (10) and the pKB was 7.37 ± 0.22 (10). In the test with M2 mAChR [1] (listed as Gi1), the “Log α[3H]-NMS” value is on record as −0.55 ± 0.16.

Turning to “Gq: purified heterotrimeric G protein, Gq α subunit with Gβ1γ2”, in the test with M2 mAChR [2], the “effect of G protein heterotrimer on ACh affinity” value was “could not mediate any change in ACh affinity”.

As for “WT G protein heterotrimer Gαi1β1γ2 (from UniProt P63096 1-354; P62873 1-340; P59768 1-71) (complex)”, in test [3], the FracHi: fraction of receptors in the high-affinity state for ACh, [3H]-NMS competition binding at M2 mAChR nanodiscs, receptor:G protein molar ratio 1:0 to 1:2000 (highest at 1:2000) came out at 1; the FracHi: fraction of receptors in the high-affinity state for Ipx, [3H]-NMS competition binding at M2 mAChR nanodiscs, receptor:G protein molar ratio 1:0 and 1:500 to 1:2000 (highest at 1:2000) worked out at 0.91; the FracHi: fraction of receptors in the high-affinity state for Pilo, [3H]-NMS competition binding at M2 mAChR nanodiscs, receptor:G protein molar ratio 1:0 and 1:500 to 1:2000 (highest at 1:2000) stood at 0.73. The pKB in test [4] came to 7.37.

Source of the values: paper PMC11389776, “Positive allosteric modulation of a GPCR ternary complex” (Science Advances, 2024).
